# Experimental data taken from US11370841B2, “Methods of treating fibroblast growth factor 19-mediated cancers and tumors” (NGM Biopharmaceuticals, Inc., priority 2016, dated 2022).
# Columns and labels:
# hepatocytes = test: In vivo BrdU incorporation (osmotic pump, 6 days); set-up: species or system mice
# Experimental: In vivo BrdU incorporation. For surgical implant, mice were anesthetized with isoflurane, and osmotic pumps (#1002, Alzet) releasing 8.5 mg/kg/day 5-bromo-2-deoxyuridine (BrdU, Sigma) and 0.4 mg/kg/day FGF19 protein were implanted subcutaneously on the back on day 1. Incisions were closed with surgical clippers and 3-0 silk suture. Mice were euthanized on day 6, and serum and livers were collected for exposure and BrdU incorporation analysis.
# Histology and immunohistochemistry. […] Hematoxylin and eosin staining was performed using standard methods. […] When indicated, sections were counterstained with hematoxylin.
# Flow cytometry. For quantification of BrdU incorporation by flow cytometry, livers were minced in RPMI media containing 0.1% collagenase for 30 minutes at 37° C. and passed through 70 μm filter. […]. Cells were analyzed on a BD Caliper flow cytometer and data were collected using CellQuest software and analyzed using Flowjo program.
# To determine the direct effect of FGF19 on hepatocyte proliferation in a cell autonomous manner, the proliferative effects of FGF19 in vivo and in isolated hepatocytes were compared by assessing the incorporation of 5-bromo-2-deoxyuridine (BrdU) into newly synthesized DNA. FGF19 was administered at a concentration of 0.4 mg/kg/day and BrdU was administered at 8.5 mg/kg/day. After being administered to mice for six days through an osmotic pump, recombinant FGF19 protein induced incorporation of BrdU into hepatocytes as evidenced by immunohistochemical staining (with hematoxylin) and by flow cytometry analysis (hepatocytes were stained with 7-AAD and anti-BrdU-APC) (FIGS. 2A and 2B). […] Plasma concentrations of FGF19 were 5.2±1.2 ng/mL at the end of the study (FIG. 2C).
# [1] = system: FGF19-mediated hepatocellular carcinoma; test: AAV-FGF19 tumorigenicity and metabolic study in Stat3f/f and Stat3ΔHep mice; details: for Reduction in hepatic mRNA levels of Cyp7a1 / Reduction in hepatic mRNA levels of Cyp8b: AAV-expressed FGF19, 12 months
# Experimental: Hepatocyte-specific Stat3 deletion. […] Stat3^f/f mice injected with AAV-TBG-Cre alone served as Stat3^ΔHep controls. Stat3^f/f mice were used as wild type controls. AAV-TBG-Cre drives Cre recombinase expression under TBG promoter, which allows hepatocyte-specific expression.
# 52 weeks after AAV injection, mice were euthanized and examined for liver tumor formation. The maximum diameter of liver tumor nodules in each mouse was measured with a caliper and total numbers of tumor nodules per liver were recorded. Livers were weighed and collected for histological examination or gene expression analysis.
# Glucose and body composition. Blood concentrations of ad libitum fed glucose were measured in conscious animals from a hand-held glucometer (Accu-check, Roche Diagnostics) using tail vein blood. Body weight and body composition (EcoMRI whole body composition analyzer) were measured at designated times. Mice were euthanized 52 weeks post-AAV administration. Macroscopic liver tumors were counted and the maximal diameter of the tumors recorded.
# Gene expression analysis.
# Blood parameters. Blood was collected from tail vein in un-anesthetized animals using microvette serum gel tubes (Sarstedt) for measurements of glucose, insulin, ALT, AST, ALP, bile acids, and FGF19 concentrations. Serum samples were prepared by centrifugation at 4° C. for 10 minutes at 6000 g after clotting at room temperature for 30 minutes. For HbA1c measurements, whole blood was collected after euthanasia by cardiac puncture into EDTA-tubes and quickly inverted multiple times. HbA1c (from whole blood samples) and liver enzyme (from serum samples) levels were measured on Cobas Integra 400 Clinical Analyzer (Roche Diagnostics). Serum FGF19 level was determined by FGF19 enzyme-linked immunosorbent assays (ELISA) (Biovendor). Serum insulin was assessed with ELISA kits from ALPCO. Concentrations of total bile acids in serum were determined using a 3β-hydroxysteroid dehydrogenase method (Diazyme). All assays were performed according to the manufacturers' instructions.
# Histology and immunohistochemistry. Livers were fixed in 10% neutral-buffered formalin and embedded in paraffin. 5 μm sections were deparaffinized in xylenes, rehydrated sequentially in graded ethanol (100%, 95%, 80%, 70%, 50%, 2 minutes each). Hematoxylin and eosin staining was performed using standard methods. For immunohistochemical studies, liver sections were subjected to antigen retrieval in a citrate-based Antigen Unmasking Solution (Vector Laboratories), and incubated for 30 minutes with 3% H2O2 at room temperature to block endogenous peroxidase activity. Sections were stained with primary antibodies against glutamine synthetase (Thermo Fisher), BrdU, PCNA, or STAT3 in PBS containing 10% goat serum. Biotinylated secondary antibodies, ABC-HRP reagent (Vectastain ABC kit, #PK-6100, Vector Laboratories) and di-amine-benzidine (DAB) colorimetric peroxidase substrate (#SK-4100, Vector Laboratories) were used for detection. When indicated, sections were counterstained with hematoxylin. Digital imaging microscopy was performed using a Leica DM4000 microscope equipped with DFC500 camera and a scanning platform (Leica). Images for the entire liver section were acquired by stitching 70-96 fields together using Surveyor program for morphometric analysis. Glutamine synthetase-positive tumor areas were quantified using Measure/Count/Area tool from ImagePro software.
# [2] = Stat3f/f mice, AAV-expressed FGF19
substance,measurement,setting,value
"FGF19: Fibroblast growth factor 19, mature human 194 amino acid polypeptide (SEQ ID NO: 1); recombinant protein or AAV-expressed",BrdU-positive cells in liver (flow cytometry),"hepatocytes; 20 μg per mouse per day (0.4 mg/kg/day) by osmotic pump, six days",9.2+1.5%
same,PCNA and Ki-67 expression,"hepatocytes; FGF19-treated mice, osmotic pump, six days",higher
same,Plasma concentrations of FGF19 at the end of the study,"hepatocytes; osmotic pump 0.4 mg/kg/day, day 6",5.2 ± 1.2 ng/mL
same,Body weight,[1]; [2],weight-lowering
same,Glucose,[1]; [2],glucose-lowering
same,Reduction in hepatic mRNA levels of Cyp7a1,[1]; Stat3f/f mice,77%
same,Reduction in hepatic mRNA levels of Cyp8b,[1]; Stat3f/f mice,95%
same,Reduction in hepatic mRNA levels of Cyp7a1,[1]; Stat3ΔHep mice,87%
same,Reduction in hepatic mRNA levels of Cyp8b,[1]; Stat3ΔHep mice,88%
